Measurements published in article PMC9989821.

What was measured:
Experiment in all cases: crystal structure; VP1 pentamers (His-tag cleaved) at 3-4 mg/mL, hanging drop vapor diffusion at 20°C, 10-18% PEG 3.350, 0.1 M HEPES pH 7.5, 0.1-0.3 M LiCl; self-association of VP1 into a pentamer
[1] = target: BK polyomavirus VP1 mutant E73A (VP1 pentamer, residues 30-300) (BK polyomavirus) (UniProt P03088)
[2] = target: BK polyomavirus VP1 mutant E73Q (VP1 pentamer, residues 30-300) (BK polyomavirus) (UniProt P03088)
[3] = target: BK polyomavirus VP1 mutant N-Q, K69N E82Q (VP1 pentamer, residues 30-300) (BK polyomavirus) (UniProt P03088)
[4] = target: BK polyomavirus VP1 mutant VQQ, A72V E73Q E82Q (VP1 pentamer, residues 30-300) (BK polyomavirus) (UniProt P03088)

“BK polyomavirus VP1 mutant E73A (VP1 pentamer, residues 30-300) (from UniProt P03088 30-300) (domain or fragment)” was tested. Which stoichiometry N [1] did it give?
The stoichiometry N was 5.

How did the stoichiometry N [2] turn out when “BK polyomavirus VP1 mutant E73Q (VP1 pentamer, residues 30-300) (from UniProt P03088 30-300) (domain or fragment)” was run?
Its stoichiometry N is 5.

With “BK polyomavirus VP1 mutant N-Q, K69N E82Q (VP1 pentamer, residues 30-300) (from UniProt P03088 30-300) (domain or fragment)” as the substance, how does the stoichiometry N [3] read?
Its stoichiometry N is 5.

How did the stoichiometry N [4] turn out when “BK polyomavirus VP1 mutant VQQ, A72V E73Q E82Q (VP1 pentamer, residues 30-300) (from UniProt P03088 30-300) (domain or fragment)” was run?
The stoichiometry N was 5.
